From patent US20220275390A1 (TRUSTEES OF PRINCETON UNIVERSITY, published 2022)
Positions count from the first letter of the chain named. Values belong to the binder of their own block, whether it stands above or below them.

How the values were obtained:
[1] = molecular target: T1, Chlamydomonas reinhardtii Rubisco holoenzyme (L8S8) (Chlamydomonas reinhardtii, UniProt P00877 3-475); assay: SPR; highest binding affinity of all peptides tested
T1 construct: Purified from C. reinhardtii strain cMJ030 (sucrose gradient, anion exchange); also called purified Rubisco; Cr L8S8 Rubisco

[2] = molecular target: T1, Chlamydomonas reinhardtii Rubisco …; assay: SPR, steady-state fit
[3] = molecular target: T1, Chlamydomonas reinhardtii Rubisco …; assay: SPR, Rubisco immobilized, peptide at 0-4.0 mM in solution (FIG. 4C)
Description: FIGS. 4A-4C show the EPYC1 fragment that was used to generate the cryoelectron microscopy structure shown in FIGS. 5A-5D, as well as the binding affinity of the EPYC1 fragment for Rubisco. […] The four nearly identical repeats (Repeats 1-4), flanked by short N- and C- termini are indicated. The dark grey boxes represent the ten RBMs on EPYC1. The dark grey bar above the boxes (“EPYC1 peptide”) spans RBM 2 of EPYC1 and represents the 24 amino acid EPYC1 fragment (SEQ ID NO: 51) that was used to generate the cryoelectron microscopy structure of Rubisco bound to the RBM 2 EPYC1 fragment shown in FIGS. 5A-5D. FIGS. 4B-4C provide results of SPR experiments to determine the binding affinity of the 24 amino acid EPYC1 fragment diagramed in FIG. 4A for Rubisco. […] The response difference (Resp. Diff., in RU) is shown on the y-axis.
Surface Plasmon Resonance (SPR) Assay Rubisco was immobilized on a surface and peptides in solution were flowed over the surface. Surface plasmon measurements of binding of individual peptides to Rubisco were assayed (FIG. 3B).

S1Cr_D23A+E24A = molecular target: T2, S1Cr_D23A+E24A; assay: yeast two-hybrid, EPYC1 as BD and SSU variant as AD
T2 construct: variant of m7
T2 chain: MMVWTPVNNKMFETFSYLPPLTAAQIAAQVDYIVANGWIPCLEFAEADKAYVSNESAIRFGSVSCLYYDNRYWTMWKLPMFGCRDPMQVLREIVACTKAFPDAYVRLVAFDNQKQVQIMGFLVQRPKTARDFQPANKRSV
Description: (§1) FIGS. 9A-9C show the results of a yeast two-hybrid (Y2H) assay to measure the interaction between EPYC1 and Rubisco SSU variants. […] The images shown were taken following three days of cell growth. The Rubisco SSU residues that form salt bridges with EPYC1 residues are bolded (D23, E24, and R91) and the residues that form the hydrophobic pocket with EPYC1 residues are bolded and italicized (M87 and V94). The “Control” images were taken from cells grown for three days on SD-L-W media and the “Test” images were taken from cells grown for three days on SD-L-W-H with 3-AT. Growth of yeast cells expressing the indicated EPYC1 and Rubisco SSU variants was measured after three days on SD-L-W-H with varying 3-AT concentrations. The highest concentration of 3-AT (0, 1, 2.5, 5, 10, and 20 mM) permissive for the growth of each EPYC1 and Rubisco SSU variant combination is shown, as indicated in the “Key” on the right.
(§2) Mutagenesis of EPYC1, Mutagenesis of Rubisco, Yeast Two-hybrid, Peptide Arrays and SPR Assays To determine the importance of individual EPYC1 residues for binding to Rubisco, the impact on Rubisco binding of every possible single amino acid substitution for EPYC1 RBM 2 was determined (FIG. 8). To determine the importance of individual Rubisco residues for binding to EPYC1, targeted mutations of the amino acids identified from atomic modeling were tested in a yeast two-hybrid assay as in van Nues and Beggs (Genetics 157: 1451-1467, 2000). Peptide arrays and SPR assays were performed as in Example 1.

S1Cr_D23A+E24A+R91A = molecular target: T3, S1Cr_D23A+E24A+R91A; assay: as above
T3 construct: variant of m7
T3 chain: T2 chain with R91A
Description: as §1, §2

S1Cr_D23A = molecular target: T4, S1Cr_D23A; assay: as above
T4 construct: variant of m7
T4 chain: T2 chain with A24E
Description: as §1, §2

S1Cr_M87D/V94D = molecular target: T5, S1Cr_M87D/V94D; assay: yeast two-hybrid, Control SD-L-W, Test SD-L-W-H with 3-AT (concentration not given)
T5 construct: variant of m7
T5 chain: T2 chain with A23D, A24E, M87D, V94D
Description: as §1
Mutagenesis of EPYC1, Mutagenesis of Rubisco, Yeast Two-hybrid, Peptide Arrays and SPR Assays To determine the importance of individual EPYC1 residues for binding to Rubisco, the impact on Rubisco binding of every possible single amino acid substitution for EPYC1 RBM 2 was determined (FIG. 8). […]

S1Cr_V94D = S1Cr_V94D (Chlamydomonas reinhardtii); assay: cell-based or functional assay
[4] = molecular target: Chlamydomonas reinhardtii Rubisco small subunit 1 (Chlamydomonas reinhardtii, UniProt P00873 46-185); assay: cell-based or functional assay
S1Cr_M87D = S1Cr_M87D (Chlamydomonas reinhardtii); assay: cell-based or functional assay

- Kd [1]: 3 mM
- Ka [2]: 324 M⁻¹
- Kd [3]: 3.09 mM
B1: 24 amino acid EPYC1 fragment spanning RBM 2 (peptide)
peptide: TNRVSPTRSVLPANWRQELESLRN
notes: also called EPYC1 peptide; RBM 2 EPYC1 fragment

- binding result (S1Cr_D23A+E24A): no binding
- binding result (S1Cr_D23A+E24A+R91A): no binding
- binding result (S1Cr_D23A): no binding
- binding result (S1Cr_M87D/V94D): no binding
- highest 3-AT concentration permissive for growth (Y2H), box pattern read against the printed key (S1Cr_V94D): 0 mM 3-AT
- highest 3-AT concentration permissive for growth (Y2H), box pattern read against the printed key [4]: 20 mM 3-AT
- highest 3-AT concentration permissive for growth (Y2H), box pattern read against the printed key (S1Cr_M87D): 0 mM 3-AT
B2: Chlamydomonas reinhardtii Essential Pyrenoid Component 1 (EPYC1) (other)
chain: MATISSMRVGAASRVVVSGRVKTVKVAARGSWRESSTATVQASRASSATNRVSPTRSVLPANWRQELESLRNGNGSSSAASSAPAPARSSSASWRDAAPASSAPARSSSASKKAVTPSRSALPSNWKQELESLRSSSPAPASSAPAPARSSSASWRDAAPASSAPARSSSSKKAVTPSRSALPSNWKQELESLRSSSPAPASSAPAPARSSSASWRDAAPASSAPARSSSASKKAVTPSRSALPSNWKQELESLRSNSPAPASSAPAPARSSSASWRDAPASSSSSSADKAGTNPWTGKSKPEIKRTALPADWRKGL
notes: also called WT EPYC1
